Laboratory results reported in patent publication US20040091985A1, “NAD phosphite oxidoreductase, a novel catalyst from bacteria for regeneration of NAD(P)H” (priority 2002, published 2004).
Where “and” joins values, the source holds several entries; their conditions need not be identical. Equal values may be shown once.

Substrate: NC(=O)c1ccc[n+]([C@@H]2O[C@H](COP(=O)([O-])OP(=O)(O)OC[C@H]3O[C@@H](n4cnc5c(N)ncnc54)[C@H](O)[C@@H]3O)[C@@H](O)[C@H]2O)c1
Test: purified protein, by the assay type
Details: pH 7.25, 30.0 °C

B1: PtxD (Stutzerimonas stutzeri) (protein)
chain: MLPKLVITHRVHDEILQLLAPHCELMTNQTDSTLTREEILRRCRDAQAMMAFMPDRVDADFLQACPELRVVGCALKGFDNFDVDACTARGVWLTFVPDLLTVPTAELAIGLAVGLGRHLRAADAFVRSGEFQGWQPQFYGTGLDNATVGILGMGAIGLAMADRLQGWGATLQYHEAKALDTQTEQRLGLRQVACSELFASSDFILLALPLNADTQHLVNAELLALVRPGALLVNPCRGSVVDEAAVLAALERGQLGGYAADVFEMEDWARADRPRLIDPALLAHPNTLFTPHIGSAVRAVRLEIERCAAQNIIQVLAGARPINAANRLPKAEPAAC
Km (other: Table 4, NAP as A, fit to Equilibrium ordered mechanism): 4520 µM | Km (other: Table 4, NAP as A, fit to Pingpong mechanism): 12800 µM | Km (other: substrates of PtxD): 54.6 ± 6.7 µM and 50 µM
